Results taken from publication PMC7116795.

Molecular target: RAD51 (UniProt Q06609 1-339)
Assay: EMSA

RAD51, sequence (Q06609 whole entry): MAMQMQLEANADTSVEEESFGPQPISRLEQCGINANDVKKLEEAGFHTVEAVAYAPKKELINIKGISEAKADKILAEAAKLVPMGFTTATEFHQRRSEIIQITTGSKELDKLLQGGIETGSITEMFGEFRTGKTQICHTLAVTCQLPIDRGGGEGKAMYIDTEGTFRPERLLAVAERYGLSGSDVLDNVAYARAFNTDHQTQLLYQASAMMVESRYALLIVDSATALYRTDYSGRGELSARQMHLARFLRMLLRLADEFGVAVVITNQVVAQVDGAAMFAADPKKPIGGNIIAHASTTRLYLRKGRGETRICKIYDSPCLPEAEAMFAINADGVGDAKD

## UUAGGGUUAGGGUUAGGGUUAGGGUUAGGGUUAGGGUUAGG (ssRNA) [41mer TERRA]
  binding signal: ~3 fold higher affinity than TelDNA (N2)
